{
  "source": "paper PMC8239413",
  "target": "truncated RBD variant RBD-215 (amino acids R319-L533), plant-produced (SARS-CoV-2) (UniProt P0DTC2)",
  "test": "SEC; IMAC-purified RBD-215 (Supplementary Figure 4)",
  "data": [
    {"substance": "truncated RBD variant RBD-215 (amino acids R319-L533), plant-produced (from UniProt P0DTC2 319-533) (domain or fragment)", "values": [
      {"measurement": "percent dimers", "result": 10, "unit": "%"}
    ]}
  ]
}
